Laboratory results published in PMC6373445, “Identification and characterization of GH11 xylanase and GH43 xylosidase from the chytridiomycetous fungus, Rhizophlyctis rosea” (Applied Microbiology and Biotechnology, 2018).
One block for each molecule: values may come before it.

What was measured:
RrXyl43A = biological target: T1, RrXyl43A (Rhizophlyctis rosea, UniProt A0A2U8LMQ1); assay: residual pNPX hydrolysis, absorbance […] nm; assay type: biochemical; conditions: read-out: % residual activity at 100 mM
T1 construct: full-length 325 residues, no native signal peptide; codon-optimized in pPICZalphaA with alpha-factor signal, His-tagged, Pichia pastoris KM71H; theoretical 39 kDa with tag; active as monomer; not N-glycosylated
T1 sequence (A0A2U8LMQ1 1-325): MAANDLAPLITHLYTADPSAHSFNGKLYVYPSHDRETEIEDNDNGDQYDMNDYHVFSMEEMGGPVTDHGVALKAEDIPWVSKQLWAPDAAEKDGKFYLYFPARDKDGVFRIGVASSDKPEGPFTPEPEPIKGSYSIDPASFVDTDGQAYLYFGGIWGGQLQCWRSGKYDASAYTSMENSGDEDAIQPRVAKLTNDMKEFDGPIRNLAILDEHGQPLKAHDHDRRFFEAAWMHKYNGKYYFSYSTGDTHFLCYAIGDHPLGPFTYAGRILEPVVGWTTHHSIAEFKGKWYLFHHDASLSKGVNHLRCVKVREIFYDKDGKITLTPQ

purified protein = substrate: O=[N+]([O-])c1ccc(O[C@@H]2OC[C@@H](O)[C@H](O)[C@H]2O)cc1; assay: purified protein; assay type: biochemical, Rhizophlyctis rosea; conditions: McIlvaine buffer pH 7, 25 °C, 10 min

remaining activity at 100000 µM (RrXyl43A): 51%
Molecule: OC1OC[C@@H](O)[C@H](O)[C@H]1O (stereo partly shown) [xylose]

B1: RrXyl43A (Rhizophlyctis rosea) (protein)
chain: T1 sequence (A0A2U8LMQ1 1-325)
notes: full-length 325 residues, no native signal peptide; codon-optimized in pPICZalphaA with alpha-factor signal, His-tagged, Pichia pastoris KM71H; theoretical 39 kDa with tag; active as monomer; not N-glycosylated
Km (purified protein): 1340 ± 170 µM | Vmax (purified protein): 34.6 µmol/min/mg | kcat (purified protein): 21.2 ± 0.89 s⁻¹
